Experimental data: article PMC11558545, “Mechanistic Insights into the Function of 14-3-3 Proteins as Negative Regulators of Brassinosteroid Signaling in Arabidopsis” (Plant and Cell Physiology, 2024)
Substitutions are numbered along the chain they refer to. Numbers in names are those of the source. Square brackets hold non-standard residues; d marks the D form. Ends that are not written are not given here. pT = C[C@@H](OP(=O)(O)O)[C@H](N)C(=O)O; pS = N[C@@H](COP(=O)(O)O)C(=O)O

T1: At14-3-3 λ^N233A (Arabidopsis thaliana, UniProt P48349 1-248, N233A)
T1 construct: 14-3-3 lambda (GRF6), Arabidopsis thaliana, with N233A; also called 14-3-3λ Asn233→ Ala mutant; source: E. coli BL21 (DE3) RIL, purified using the same protocol as the wild type; not shown: thioredoxin A, N-terminal, cleaved; 8xHis, N-terminal, cleaved; StrepII, N-terminal, cleaved
T1 sequence (looked up): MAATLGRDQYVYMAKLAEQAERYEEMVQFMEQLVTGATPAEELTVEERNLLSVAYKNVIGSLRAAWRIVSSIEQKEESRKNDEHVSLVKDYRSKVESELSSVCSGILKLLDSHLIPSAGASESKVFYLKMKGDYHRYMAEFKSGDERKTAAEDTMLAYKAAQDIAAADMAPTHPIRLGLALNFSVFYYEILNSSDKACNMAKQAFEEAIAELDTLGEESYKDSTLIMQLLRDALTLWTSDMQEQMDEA

T2: Arabidopsis 14-3-3 isoform kappa (At14-3-3-κ^1−248) (Arabidopsis thaliana, UniProt P48348 1-248)
T2 construct: 14-3-3 kappa (GRF8), Arabidopsis thaliana, full length, residues 1-248; The ITC text names 14-3-3κ without limits; a truncated 1-240 construct was also cloned; not shown: thioredoxin A, N-terminal, cleaved; 8xHis, N-terminal, cleaved; StrepII, N-terminal, cleaved
T2 sequence (looked up): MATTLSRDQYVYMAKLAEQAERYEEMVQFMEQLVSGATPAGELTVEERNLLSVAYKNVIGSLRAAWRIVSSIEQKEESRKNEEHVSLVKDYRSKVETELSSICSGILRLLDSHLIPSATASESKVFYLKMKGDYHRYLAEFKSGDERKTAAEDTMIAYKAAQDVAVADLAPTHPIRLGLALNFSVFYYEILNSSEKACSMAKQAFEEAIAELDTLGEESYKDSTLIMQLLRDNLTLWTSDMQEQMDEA

B1: pBKI1^265−272 peptide (peptide)
peptide: RGELF[pS]AP
notes: also called RGELFpSAP; source: synthetic peptide (Peptide Specialty Laboratories)
B2: C-terminal truncated At14-3-3-ω^1−237 (domain or fragment, Arabidopsis thaliana, UniProt Q01525 1-237, looked up)
chain: MASGREEFVYMAKLAEQAERYEEMVEFMEKVSAAVDGDELTVEERNLLSVAYKNVIGARRASWRIISSIEQKEESRGNDDHVTAIREYRSKIETELSGICDGILKLLDSRLIPAAASGDSKVFYLKMKGDYHRYLAEFKTGQERKDAAEHTLAAYKSAQDIANAELAPTHPIRLGLALNFSVFYYEILNSPDRACNLAKQAFDEAIAELDTLGEESYKDSTLIMQLLRDNLTLWTSD
notes: 14-3-3 omega (GRF2), Arabidopsis thaliana, residues 1-237; also called truncated 14-3-3 ω; not shown: thioredoxin A, N-terminal, cleaved; 8xHis, N-terminal, cleaved; StrepII, N-terminal, cleaved
B3: Arabidopsis 14-3-3 omega, full length (At14-3-3-ω^1−259) (natural protein, Arabidopsis thaliana, UniProt Q01525 1-259, looked up)
chain: MASGREEFVYMAKLAEQAERYEEMVEFMEKVSAAVDGDELTVEERNLLSVAYKNVIGARRASWRIISSIEQKEESRGNDDHVTAIREYRSKIETELSGICDGILKLLDSRLIPAAASGDSKVFYLKMKGDYHRYLAEFKTGQERKDAAEHTLAAYKSAQDIANAELAPTHPIRLGLALNFSVFYYEILNSPDRACNLAKQAFDEAIAELDTLGEESYKDSTLIMQLLRDNLTLWTSDMQDDAADEIKEAAAPKPTEEQQ
notes: 14-3-3 omega (GRF2), Arabidopsis thaliana, full length, residues 1-259; ITC and SEC-RALS name 14-3-3 ω without limits; not shown: thioredoxin A, N-terminal, cleaved; 8xHis, N-terminal, cleaved; StrepII, N-terminal, cleaved
B4: Arabidopsis 14-3-3 lambda (At14-3-3-λ^1−248) (natural protein, Arabidopsis thaliana, UniProt P48349 1-248, looked up)
chain: T1 sequence (looked up) with A233N
notes: 14-3-3 lambda (GRF6), Arabidopsis thaliana, full length, residues 1-248; The ITC text names 14-3-3λ without limits; a truncated 1-240 construct was also cloned; not shown: thioredoxin A, N-terminal, cleaved; 8xHis, N-terminal, cleaved; StrepII, N-terminal, cleaved
B5: 14-3-3 λ^R136L/Y137F (natural protein, Arabidopsis thaliana, UniProt P48349 1-248, looked up)
chain: T1 sequence (looked up) with R136L, Y137F, A233N
notes: 14-3-3 lambda (GRF6), Arabidopsis thaliana, with R136L and Y137F; also called 14-3-3λ Arg136→Leu/Tyr137→ Phe double mutant; source: E. coli BL21 (DE3) RIL, purified using the same protocol as the wild type; not shown: thioredoxin A, N-terminal, cleaved; 8xHis, N-terminal, cleaved; StrepII, N-terminal, cleaved
B6: pBZR1^169−175 peptide (peptide)
peptide: RISN[pS]AP
notes: also called RISNpSAP; source: synthetic peptide (Peptide Specialty Laboratories)
B7: pBZR1^169−184 peptide (peptide)
peptide: RISN[pS]CPV[pT]PPVSSPT
notes: also called extended BZR1 linear motif; source: synthetic peptide (Peptide Specialty Laboratories)
B8: pBRI1^869−874 peptide (peptide)
peptide: RKL[pT]FA
notes: BRI1, Arabidopsis thaliana, residues 869-874, N-lobe of the kinase domain; also called RKLpTFA; source: synthetic peptide (Peptide Specialty Laboratories)

How the values were obtained:
[1] = molecular target: B4; test: ITC; Nano ITC, 25°C, 25 mM Hepes pH 7.0, 50 mM KCl; 600 μM peptide or phosphopeptide injected into 50 μM 14-3-3 protein in the cell, 25 injections; conditions: both partners purified
[2] = molecular target: T1, At14-3-3 λ^N233A; test: as above; conditions: both partners purified
[3] = molecular target: B3; test: as above; conditions: both partners purified
[4] = molecular target: B2; test: crystal structure; co-crystallisation of 14-3-3 with 1-3 mM phosphopeptide; molecular replacement; conditions: both partners purified
[5] = molecular target: the molecule itself; test: as above
[6] = molecular target: the molecule itself; test: SEC; analytical, Superdex 200 increase 10/300 GL, 25 mM Hepes pH 7.0, 50 mM KCl; 500 μl of protein at 2.0 mg/ml
[7] = molecular target: T2, Arabidopsis 14-3-3 isoform kappa …; test: ITC; Nano ITC, 25°C, 25 mM Hepes pH 7.0, 50 mM KCl; 600 μM peptide or phosphopeptide injected into 50 μM 14-3-3 protein in the cell, 25 injections; conditions: both partners purified
[8] = molecular target: B3; test: crystal structure; co-crystallisation of 14-3-3 with 1-3 mM phosphopeptide; molecular replacement; conditions: both partners purified

Binder: B1
- binding result [1]: binds
- binding result [2]: binds
- binding result [3]: binds
- binding result [4]: binds

Binder: B2
- binding result [5]: binds

Binder: B3
- binding result [5]: binds

Binder: B4
- binding result [5]: binds

Binder: B5
- stoichiometry N [6]: 2

Binder: B6
- binding result [1]: binds
- fold reduction of interaction by the N233A mutation [2]: ~5 fold
- binding result [4]: binds

Binder: B7
- fold reduction of binding against the BZR1^169−175 motif [7]: ~10 fold
- stoichiometry N [7]: ~1
- binding result [8]: binds

Binder: B8
- fold reduction of interaction by the N233A mutation [2]: ~2 fold
